Measurements reported in patent publication US20200362021A1 (PHANES THERAPEUTICS, published 2020).
Positions count from the first letter of the chain named. Like-named read-outs stand apart in the source and are kept apart here. Each block holds one binder with its values, some of them ahead of it. No end group written: not given here. *: point of attachment. Biotin = O=C1N[C@H]2[C@H](CS[C@H]2CCCCC(=O)*)N1

Legend:
[1] = target: T1, apelin-13-biotin (…-biotin) (C-terminal biotin); experiment: SPR (Biacore), apelin-13-biotin on streptavidin chip
T1 construct: also called APL13-Biotin
Description: (§1) Anti-apelin mAbs at four different concentrations (12.5 nM, 25 nM, 50 nM and 100 nM) were captured on the chip surface. The on- and off-rate for antibody-antigen binding were measured, curve fitted and calculated.

[2] = target: T2, pyr-apelin-13-biotin (pE-RPRLSHKGPMPF-biotin) (N-terminal pyroglutamate (pE); C-terminal biotin); experiment: SPR (Biacore), pyr-apelin-13-biotin on streptavidin chip
T2 construct: also called pyrAPL13-Biotin
T2 peptide: ERPRLSHKGPMPF
Description: as §1

[3] = target: T3, Biotin-APL17; experiment: ELISA, peptide on neutravidin plate, mAb 200 ng/ml, A405
T3 peptide: Biotin-KFRRQRPRLSHKGPMPF
Description: (§2) FIGS. 1A-1C show binding of anti-apelin mAbs to various biotinylated apelin peptides measured by ELISA. Biotinylated apelin peptides were immobilized on ELISA plates coated with neutravidin and purified recombinant rabbit anti-apelin mAbs were added for binding to the peptides on the plates. The binding was detected by adding a goat anti-rabbit IgG Fc-conjugated to alkaline phosphatase and PNPP substrate, and measured as the absorbance at 405 nm.
(§3) For the binding assay, neutravidin in carbonate coating buffer was coated on high binding ELISA plates at 1 μg/ml overnight. Peptides were added at 4 μg/ml after the plates were blocked with 1% BSA in TBS. After incubation of the plates at room temperature for 60 minutes, the plates were washed and then purified recombinant rabbit antibodies were added at 200 ng/ml. Following rabbit antibody binding to the peptides on the plates at room temperature for 90 minutes, goat anti-rabbit IgG Fc-conjugated to alkaline phosphatase was added, and antibody-antigen binding was detected by adding PNPP substrate and reading absorbance of ELISA plates at 405 nm. Each mAb was assayed in duplicate.

[4] = target: T4, APL17-Biotin; experiment: as above
T4 peptide: KFRRQRPRLSHKGPMPF-biotin
Description: as §2, §3

[5] = target: T5, 1-4; experiment: competition ELISA, captured mAb, peptide competes with apelin-13-biotin, A405
T5 construct: also called apelin peptide 1-4 (QRPR)
T5 peptide: QRPR

[6] = target: T6, apelin 17 (competition peptide 1-17, KFRRQRPRLSHKGPMPF); experiment: as above
T6 peptide: KFRRQRPRLSHKGPMPF

[7] = target: T7, apelin peptide 1-12 (QRPRLSHKGPMP); experiment: as above
T7 peptide: QRPRLSHKGPMP

[8] = target: T8, apelin peptide 2-13 (RPRLSHKGPMPF); experiment: as above
T8 peptide: RPRLSHKGPMPF

[9] = target: T9, apelin peptide 1-11 (QRPRLSHKGPM); experiment: as above
T9 peptide: QRPRLSHKGPM

[10] = target: T10, apelin peptide 1-10 (QRPRLSHKGP); experiment: as above
T10 peptide: QRPRLSHKGP

[11] = target: T11, apelin peptide 1-9 (QRPRLSHKG); experiment: as above
T11 peptide: QRPRLSHKG

[12] = target: T12, apelin peptide 1-8 (QRPRLSHK); experiment: as above
T12 peptide: QRPRLSHK

[13] = target: T13, apelin peptide 1-7 (QRPRLSH); experiment: as above
T13 peptide: QRPRLSH

[14] = target: T14, apelin peptide 1-6 (QRPRLS); experiment: as above
T14 peptide: QRPRLS

[15] = target: T15, apelin peptide 1-5 (QRPRL); experiment: as above
T15 peptide: QRPRL

[16] = target: T16, alanine scanning peptide 1A (ARPRL); experiment: as above
T16 peptide: ARPRL
Description: (§4) Each peptide or control sample was assayed in duplicate for a given mAb.

[17] = target: T17, alanine scanning peptide 2A (QAPRL); experiment: as above
T17 peptide: QAPRL
Description: as §4

[18] = target: T18, alanine scanning peptide 3A (QRARL); experiment: as above
T18 peptide: QRARL
Description: as §4

[19] = target: T19, alanine scanning peptide 4A (QRPAL); experiment: as above
T19 peptide: QRPAL
Description: as §4

[20] = target: T20, alanine scanning peptide 5A (QRPRA); experiment: as above
T20 peptide: QRPRA
Description: as §4

[21] = target: T5, 1-4; experiment: as above
[22] = target: T6, apelin 17 (competition peptide 1-17, …); experiment: as above
[23] = target: T7, apelin peptide 1-12 (QRPRLSHKGPMP); experiment: as above
[24] = target: T8, apelin peptide 2-13 (RPRLSHKGPMPF); experiment: as above
[25] = target: T9, apelin peptide 1-11 (QRPRLSHKGPM); experiment: as above
[26] = target: T10, apelin peptide 1-10 (QRPRLSHKGP); experiment: as above
[27] = target: T11, apelin peptide 1-9 (QRPRLSHKG); experiment: as above
[28] = target: T12, apelin peptide 1-8 (QRPRLSHK); experiment: as above
[29] = target: T13, apelin peptide 1-7 (QRPRLSH); experiment: as above
[30] = target: T14, apelin peptide 1-6 (QRPRLS); experiment: as above
[31] = target: T15, apelin peptide 1-5 (QRPRL); experiment: as above
[32] = target: T5, 1-4; experiment: as above
[33] = target: T6, apelin 17 (competition peptide 1-17, …); experiment: as above
[34] = target: T7, apelin peptide 1-12 (QRPRLSHKGPMP); experiment: as above
[35] = target: T8, apelin peptide 2-13 (RPRLSHKGPMPF); experiment: as above
[36] = target: T9, apelin peptide 1-11 (QRPRLSHKGPM); experiment: as above
[37] = target: T10, apelin peptide 1-10 (QRPRLSHKGP); experiment: as above
[38] = target: T11, apelin peptide 1-9 (QRPRLSHKG); experiment: as above
[39] = target: T12, apelin peptide 1-8 (QRPRLSHK); experiment: as above
[40] = target: T13, apelin peptide 1-7 (QRPRLSH); experiment: as above
[41] = target: T14, apelin peptide 1-6 (QRPRLS); experiment: as above
[42] = target: T15, apelin peptide 1-5 (QRPRL); experiment: as above

Kd [1]: 3.14 pM
Kd [2]: 0.326 pM
binding result [3]: no binding (tested: 200 ng/ml)
binding result [4]: no binding (tested: 200 ng/ml)
binding result [7]: binds
binding result [9]: binds
binding result [10]: binds
binding result [11]: binds
binding result [12]: binds
binding result [13]: binds
binding result [14]: binds
binding result [15]: binds
B1: anti-apelin mAb C7 (antibody, V domains shown)
VH: QSLEESGGRLAKPDETLTLTCTVSGIDLNSHAMDWVRQAPGKGLEWIGVIAPDTRTYYATWARGRFTISKTSSTSVELKMTSLTTEDTATYFCAAYPIEPGANIWGPGTLVTVSS
VL: DPVLTQTPSPVSAPVGGTVTIGCQASESVDYNNQLSWYQQKPGQAPKRLMYYVSTLDSGVPSRFKGSGSGTQFTLTISDLECDDAATYYCQGGYPYNIYPFGGGTEVVVK
notes: recombinant rabbit IgG made in HEK293 cells
binding result [5]: no binding (tested: peptide concentration not stated)
binding result [6]: no binding (tested: peptide concentration not stated)
binding result [8]: no binding (tested: peptide concentration not stated)
binding result [16]: no binding (tested: peptide concentration not stated)
binding result [17]: no binding (tested: peptide concentration not stated)
binding result [18]: no binding (tested: peptide concentration not stated)
binding result [19]: no binding (tested: peptide concentration not stated)
binding result [20]: no binding (tested: peptide concentration not stated)

Kd [1]: 48.9 pM
Kd [2]: 0.154 pM
binding result [3]: no binding (tested: 200 ng/ml)
binding result [4]: no binding (tested: 200 ng/ml)
binding result [23]: binds
binding result [25]: binds
binding result [26]: binds
binding result [27]: binds
binding result [28]: binds
binding result [29]: binds
binding result [30]: binds
binding result [31]: binds
B2: anti-apelin mAb C1 (antibody, V domains shown)
VH: QSLEESGGRLVTPGGSLTLTCTVSGFSLSSYAMDWVRQAPGKGLEWIGVIAPNGATYYPTWARGRFTISKTSTTVDLKMTSLTAADTATYFCATYPIDAGANIWGPGTLVTVSS
VL: DPVLTQTPSSVSAAVGGTVTIGCQSSESVDNNNQLSWYQQKSGQPPKRLMYYVSTLDSGVPSRFKGSGSGTHFTLTISGVQCYDAATYYCQGGYISNLYPFGGGTEVVVK
notes: as for B1
binding result [21]: no binding (tested: peptide concentration not stated)
binding result [22]: no binding (tested: peptide concentration not stated)
binding result [24]: no binding (tested: peptide concentration not stated)

Kd [1]: 5.96 pM
Kd [2]: 0.513 pM
binding result [3]: no binding (tested: 200 ng/ml)
binding result [4]: no binding (tested: 200 ng/ml)
binding result [34]: binds
binding result [36]: binds
binding result [37]: binds
binding result [38]: binds
binding result [39]: binds
binding result [40]: binds
binding result [41]: binds
binding result [42]: binds
B3: anti-apelin mAb C6 (antibody, V domains shown)
VH: B1 VH with A11V, N29S, S30N, H31Y, D53N, T54R, A59P, S75T, E77D, A95T
VL: B1 VL with A25S, A45P, P95I, Y96S
notes: as for B1
binding result [32]: no binding (tested: peptide concentration not stated)
binding result [33]: no binding (tested: peptide concentration not stated)
binding result [35]: no binding (tested: peptide concentration not stated)
binding result [16]: no binding (tested: peptide concentration not stated)
binding result [17]: no binding (tested: peptide concentration not stated)
binding result [18]: no binding (tested: peptide concentration not stated)
binding result [19]: no binding (tested: peptide concentration not stated)
binding result [20]: no binding (tested: peptide concentration not stated)
